The target in experiment [1] is T1, V5-tagged full length human Tie1 expressed in COS1 cells (pcDNA3-Tie1-V5) (human, UniProt P35590 25-1138).
T1 construct: Cell lysates in Western blot and immunoprecipitation, fixed cells in immunofluorescence; also called Tie1-transfected; transfected Tie1
Briefly: Western blot, Tie1-V5-transfected COS1 cells. The method, then:
(§1) COS1 cells were transfected with pcDNA3-Tie1-V5 (1 μg DNA per 10 cm cell culture plate) using FUGENE 6 (Roche) according to manufacturer's instruction and incubated for 48 h before stimulation. For immunoprecipitation, Tie1 transfected cells and HMVEC cells were lysed in DOC-RIPA lysis buffer (50 mM Tris-HCl pH 8.0, 150 mM NaCl, 1% Triton-X-100, 0.1% SDS, 1% DOC, 10 mM EDTA) supplemented with aprotinin, leupeptin, PMSF and sodium vanadate. Immunoprecipitation was carried out from equal amount of cell lysates by incubating with polyclonal anti-human Tie1 antibodies (R&D), monoclonal anti-V5 antibodies (Invitrogen) or altogether 23 anti-Tie1 antibodies (1 μg/ml) for 1 to 2 h followed by incubation with protein G-Sepharose (Amersham Pharmacia Biotech AB) for 1 h. The immunoprecipitates were washed twice with PBS-T and twice with PBS, followed by elution with the Laemmli buffer and separation in 8% SDS-PAGE. The blots were probed with the 23 anti-Tie1 antibodies (5 μg/ml) and subsequently anti-human Fc antibodies conjugated with HRP.
(§2) Next, to find out if the anti-Tie1 antibodies recognize Tie1 in living cells, those cells were studied by immunofluorescence staining.
In general terms: A western blot detects proteins with antibodies after separation by electrophoresis.

The target of experiment [2] is T2, endogenous human Tie1 (primary human endothelial cells, HUVEC, human tissue sections, SW480 cells) (human, UniProt P35590 25-1138).
T2 construct: also called endogenous Tie1; HDMEC
T2 sequence (P35590 25-1138): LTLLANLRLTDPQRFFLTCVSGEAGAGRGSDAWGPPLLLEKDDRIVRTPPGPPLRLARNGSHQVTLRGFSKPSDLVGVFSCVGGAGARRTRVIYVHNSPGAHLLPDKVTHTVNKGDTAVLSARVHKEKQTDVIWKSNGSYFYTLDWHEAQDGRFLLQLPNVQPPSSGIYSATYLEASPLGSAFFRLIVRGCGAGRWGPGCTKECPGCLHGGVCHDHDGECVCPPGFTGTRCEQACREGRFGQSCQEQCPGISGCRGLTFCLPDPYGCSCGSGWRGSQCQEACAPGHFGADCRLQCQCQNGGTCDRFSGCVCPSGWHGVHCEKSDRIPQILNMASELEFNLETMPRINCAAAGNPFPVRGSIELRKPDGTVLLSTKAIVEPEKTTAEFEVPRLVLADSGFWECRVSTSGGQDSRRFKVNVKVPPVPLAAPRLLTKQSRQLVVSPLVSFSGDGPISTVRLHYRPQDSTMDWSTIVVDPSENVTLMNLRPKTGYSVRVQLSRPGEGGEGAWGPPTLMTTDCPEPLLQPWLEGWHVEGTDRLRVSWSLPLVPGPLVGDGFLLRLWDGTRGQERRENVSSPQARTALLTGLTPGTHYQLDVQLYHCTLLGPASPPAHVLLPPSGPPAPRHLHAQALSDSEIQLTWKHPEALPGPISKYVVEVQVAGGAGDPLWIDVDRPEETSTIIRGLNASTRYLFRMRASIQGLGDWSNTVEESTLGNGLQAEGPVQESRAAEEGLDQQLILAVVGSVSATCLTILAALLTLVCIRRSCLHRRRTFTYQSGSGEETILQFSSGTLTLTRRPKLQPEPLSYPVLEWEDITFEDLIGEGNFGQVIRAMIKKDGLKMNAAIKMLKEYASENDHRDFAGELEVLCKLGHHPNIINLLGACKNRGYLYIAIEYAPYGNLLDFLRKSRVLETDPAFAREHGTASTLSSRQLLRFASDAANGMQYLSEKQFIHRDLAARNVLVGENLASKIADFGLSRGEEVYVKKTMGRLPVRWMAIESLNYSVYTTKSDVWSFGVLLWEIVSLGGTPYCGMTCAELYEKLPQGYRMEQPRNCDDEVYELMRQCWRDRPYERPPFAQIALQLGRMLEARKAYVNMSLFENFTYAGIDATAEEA
Briefly: Western blot, HDMEC; Western blot, HDMEC. The method, then:
as §1, §2

Experiment [3] has as its target T2, endogenous human Tie1 (primary human …). Briefly: immunofluorescence, HDMEC.

T1 sequence (P35590 25-1138): as above

B1: anti-Tie1 antibody s-B2, IgG (antibody, V domains shown)
VH: EVQLLESGGGLVQPGGSLRLSCAASGFTFSIYGMAWVRQAPGKGLEWVSVISPSGGQTFYADSVKGRFTISRDNSKNTLYLQMNSLRAEDTAVYYCARVYYYGMDVWGQGTTVTVSS
VL: DIQMTQSPATLSLSPGERATLSCRASQSVSSYLAWYQQKPGQAPRLLIYDASNRATGIPARFSGSGSETDFTLTISSLEPEDFAVYYCQQRSKWPRTFGQGTKLEIK
notes: VH entry is a raw phagemid read that runs into CH1
For B1, the binding result in experiment [1] and in experiment [2] was “binds” each time.

B2: anti-Tie1 antibody s-D11, IgG (antibody, V domains shown)
VH: EVQLLESGGGLVQPGGSLRLSCAASGFTFSGYAMWWVRQAPGKGLEWVSSISPSGGATAYADSVKGRFTISRDNSKNTLYLQMNSLRAEDTAVYYCARDAGSYYWGWFDPWGQGTLVTVSS
VL: DIQMTQSPATLSLSPGERATLSCRASQSISSYLAWYQQKPGQPPRLLIYDASSRVTGIPARFSGSGFGTDFTLTISSLEPEDFAVYYCLQRSSWPRTFGQGTKLEIK
notes: VH entry is a raw phagemid read that runs into CH1; also called Di1
Regarding B2, the binding result in experiment [1] and in experiment [2] was “binds” in each case.

B3: anti-Tie1 antibody G2, IgG (antibody, V domains shown)
VH: EVQLLESGGGLVQPGGSLRLSCAASGFTFSSYKMGWVRQAPGRGLEWVSSIYPSGGWTHYADSVKGRFTISRDNSKNTLYLQMNSLRAEDTAVYYCARVLLHYFDYWGQGTLVTVSS
VL: QSVLTQPASVSGSPGQSITISCTGTSSDVGGYKYVSWYQQHPGKAPKLIISDVNNRPSGVSDRFSGSKSGNTASLTISGLQAEDDGDYYCSSYASSSYTSSTTWVFGG
notes: VL entry is lambda and stops within FR4
Turning to B3, the binding result in experiment [3] and in experiment [1] was “binds” in each case.

Source of the values: patent US20050136053A1 (DYAX, published 2005).
